# Target: JRFL SOSIP trimer (HIV-1 subtype B, truncated at residue 663), negatively selected (HIV-1 subtype B strain JRFL)
binder,measurement,value
"PGV04 Fab (Fab, V domains shown) VH: QVQLVQSGSGVKKPGASVRVSCWTSEDIFERTELIHWVRQAPGQGLEWIGWVKTVTGAVNFGSPDFRQRVSLTRDRDLFTAHMDIRGLTQGDTATYFCARQKFYTGGQGWYFDLWGRGTLIVVSS VL: EIVLTQSPGTLSLSPGETASLSCTAASYGHMTWYQKKPGQPPKLLIFATSKRASGIPDRFSGSQFGKQYTLTITRMEPEDFARYYCQQLEFFGQGTRLEIR","increase of the melting temperature (Tm) of the JRFL SOSIP-Fab complex over the trimer alone, DSF",3.6 °C
